Assay: soluble on expression in E. coli; label from the status in PepcDB or PDB records

Row | Sequence | soluble on expression in E. coli
1 | MEDLEHGVASNGLRYGFYRVESESAAICIAARGGSSFEPPGKYGIAHLTEHMIFRGNEYLQDGELDRAVELSGGEANAYTTRELILLCAEFVSDSLARVAEKLFLAVSARRLVEGEFERERAVVEAEVKGLISSPESRIYRLAHASAWGDSHLGRPIEGYPETVANISKADVEEYKASVFSPERMSLAIVGRISRLEALRVVKLFSQLEPGGKVREPETPEPRTTFLREERGIEAAYAALTLPLPPRSGLANVLARLRGVVFNLEAGATSILFKEVREERGLAYGFNVDVHITSWGSSMSLIVLEGNRDRVGELFDAMTRSLERALRGGYPESEWREGRRRLYRFYTRREAISNMERADALSAVILFHEKPFTLEDLVNQTLSSEWSLEEFLRLPRGLALIV | not soluble
2 | MEDMYDSFAALSASESEYRIIYEEKNGSELIVLGPHGGRIEPGVSELVRAFSDRCSIYLFEGLKQRNNRSLHLTSIRFDEPLALEKVNDHHYALAFHGYYDPKIPHTLVGGADRKKAKLICERLNEAGFSAELTNEKDRLAGVHPNNIVNRTKREMGLQLEVSTAQRNALFRNFGCRDKSYIQNDLFDRYVEAVKLGFYTLEHHHHHH | soluble
3 | MEDPLGRLEWIKFLSAFYDKEDKAENYFNQQVSKVMATENKVSSLKKPKVAFGMVDNGKVYIPAKNSYAAKMVDMAGGDYIFKDLNNKSGYITLEDFYSKSKDADVLIYSSSKEYTPSLKSMLSAAPILKTIKPVKNKKVWCFGKDYYQAIDKTDEIIEDLASIFHPESFKGYKIKHYSHLEHHHHHH | soluble
4 | MEDRFTTRRRANLESIAQRLLEISQKTEEDEANEVGEDDQHPKNVLNILNTITKEGLEKIVNDIIANGTIIDEMFVVLQRFSEKPALSNPIQRPFYSNLDDNVPSFLRNLQKWRLRDELTKSIEQEEKLKAELKHANDQINMIVEHNKLELDALNKINLEAKAQEKIQEEIIQRCMKRVEDLESILETKEQKLNDFEEREYETTCQLTMKHSLELAEKDQKILELEKYIRNNENQDVVALTRELERLRSQATKDEPSTDDSTIKISMAQHRLELEAQAKMIKTLEAELSKRQEINAEQIERLIEERNSEIKNLIREQSKEIHEKNVKIAKFEIKDYANIFRQISKNIFTNKEAPGPSGRPKKRRMVDDPEDLFHNYEDLDDAKFLELAKIIETTKKDVTTLINTEGPSEDVSGNFMEAKKIHGALAQLKEKDQTVSDLKQKTNQNNKRVDQEDPIEEYEYDYNDESDGESVKSETSSWDQIDDIF | not soluble
5 | MEEELASYKLQLQQVEAALLGDPTNVELLKLKEDLGEIISLQEDLAETDKAESSERAVVAPQVIHKWTVGERVIAPHPDGKKVFARIDSLTPAGVAITFTSTGTKTIVDPADLQLPPENQRKNYAFDNTKSAAGPSTQHGKKEWQAEKERRRQKALKKQQKQKELDSIKDGEKKSWQKFNTKANAKGLKGLKKVSATGSSQDGSASSSGGGGEKRGTIVSSRSSQFIFKATRGAMDSLF | not soluble
6 | MEELGYVTDAEINAKLAELKGKVPSVVINELREKLMAKKDSLTPRQLDEIVKRVLEAYGSQAAKYEQISKRVDELGKKLSDLSSQLARLVEALEEKKFAVHEKKAEAVAEKAAEVSEKIEKIEEMLEEKPRKSEIEKKLEELHRKIEELSERVAKEKVEETKARIEELEEKIAKGEEIKPEEIKEIEEEVEELGEFEEAPVEEIVVEEEKPPEPVEEVPVVEEKKEEVIEEVPVEEVVEEEKVPSHVVEEEKVEEEGGREMAEKMKIPEDIASLLFEEEPRKARLEEIPDDVVSIMIALKWLGFLIDRVGIQNLEKVLEFYYDIGWISEKVFNQLLRFAKGTRPHHRDPEWKPAEKLTVQDHLISLLFIERLRGLRITRDVLDKLEREIKMLEKTLDEFYGV | not soluble
7 | MEELRFNSVFDIIGPVMIGPSSSHTAGAARIGKVVRSIFGQQPDSVDIYLYESFAKTYRGHGTDIALVGGLLGMEPDDEQLSNSLEIAYEQGMEVCFIPKSEKADHPNSVKIVVSSGDRKLSVTGISIGGGNIQISELNGFKLSLSMGTPTFIVVHQDVPGMIAKVTNILSASDINISTMTVTRESKGEKAIMIIEVDQAEVGDIVMQLAEIPHIYSVNYFD | not soluble
